From patent US20240327505A1 (published 2024)

Columns and labels:
[1] = molecular target: SARS-CoV-2 spike S1 protein (SARS-CoV-2, UniProt P0DTC2 16-685)
[2] = molecular target: SARS-CoV-2 spike S2 protein (SARS-CoV-2, UniProt P0DTC2 686-1213)
[3] = molecular target: SARS-CoV-2 spike S1 protein (SARS-CoV-2, UniProt P0DTC2 16-685); remark: listed apart in the source

B1: AB-009637 (antibody, V domains shown)
VH: QVQLVQSGAEVKKPGSSVKVSCKASGGTFSSYAISWVRQAPGQGLEWMGGIIPILGTANYAQKFQGRVTITADKSTSTAYMELSSLRSEDTAMYYCAREGGFYGSGRNFDYWGQGTLVTVSS
VL: not shown
In the case of B1, the Kd [1] is reported as 412 nM, the koff [1] is reported as 0.000174 s⁻¹ and the kon [1] is reported as 421 M⁻¹ s⁻¹.

B2: AB-009609 (antibody, V domains shown)
VH: QVQLVQSGAEVKKPGASVKVSCKVSGYTLTELSMHWVRQAPGKGLEWMGGFDPEDAETIYAQKFQGRVTMTEDTSTDTAYMELSSLRSEDTAVYYCATALAVTGTSDSYYYYYGMDVWGQGTTVTVSS
VL: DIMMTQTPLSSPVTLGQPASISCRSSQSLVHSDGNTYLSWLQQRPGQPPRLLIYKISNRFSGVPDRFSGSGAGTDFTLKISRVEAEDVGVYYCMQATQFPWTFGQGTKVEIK
Work on B2 yielded a Kd [1] of 49.4 nM, a koff [1] of 0.00229 s⁻¹ and a kon [1] of 46400 M⁻¹ s⁻¹.

B3: AB-009078 (antibody, V domains shown)
VH: QITLKESGPTLVKPTQTLTLTCTFSGFSLSTSGVGVGWIRQPPGKALEWLALIYWDDDKRYSPSLKSRLTITKDTSKNQVVLTMTNMDPVDTATYYCAHRPGDFWSGYYRYWGQGTLVTVSS
VL: not shown
B3 showed a Kd [2] of 0.0474 nM, a koff [2] of 2.44e-07 s⁻¹ and a kon [2] of 5150 M⁻¹ s⁻¹.

B4: AB-009646 (antibody, V domains shown)
VH: QVQLVESGGGVVQPGRSLRLSCAASGFTFSSYAMHWVRQAPGKGLEWVAVISYDGSNKYYADSVKGRFTISRDNSKNTLYLQMNSLRAEDTAVYYCARACSSTSCYKGDAFDIWGQGTMVTVSS
VL: SYELTQPPSVSVSPGQTARITCSGDALPKQYAYWYQQKPGQAPVLVIYKDSERPSGIPERFSGSSSGTTVTLTISGVQAEDEADYYCQSADSSGTYSWVFGGGTKLTVL
For B4, the Kd [1] was 150 nM, the koff [1] was 0.00231 s⁻¹ and the kon [1] was 15500 M⁻¹ s⁻¹.

B5: AB-009280 (antibody, V domains shown)
VH: QVQLVESGGGVVQPGRSLRLSCAASGFTFSSYGMHWVRQAPGKGLEWVAVISYDGSNKYYADSVKGRFTISRDNSKNTLYLQMNSLRAEDTAVYYCAKSRGGGYYYYYMDVWGKGTTVTVSS
VL: DIQMTQSPSSLSASVGDRVTITCRASQGISNYLAWFQQKPGKAPKSLIYAASSLQSGVPSKFSGSGSGTDFTLTISSLQPEDFATYYCQQYNSYPPTFGQGTKLEIK
In the case of B5, the Kd [1] is reported as 20.5 nM, the koff [1] is reported as 0.000536 s⁻¹ and the kon [1] is reported as 26200 M⁻¹ s⁻¹.

B6: AB-009270 (antibody, V domains shown)
VH: QMQLVQSGPEVKKPGTSVKVSCKASGFTFTSSAMQWVRQARGQRLEWIGWIVVGSGNTNYAQKFQERVTITRDMSTSTAYMELSSLRSEDTAVYYCAVNYCSSTSCYDAFDIWGQGTMVTVSS
VL: not shown
Work on B6 yielded a Kd [3] of 3.02 nM.

B7: AB-009615 (antibody, V domains shown)
VH: QVQLVESGGGVVQPGRSLRLSCAASGFTFSSYGMHWVRQAPGKGLEWVAVIWYDGSNKYYADSVKGRFTISRDNSKNTLYLQMNSLRAEDTAVYYCAKVGSPYCSGGSCYSGYFDYWGQGTLVTVSS
VL: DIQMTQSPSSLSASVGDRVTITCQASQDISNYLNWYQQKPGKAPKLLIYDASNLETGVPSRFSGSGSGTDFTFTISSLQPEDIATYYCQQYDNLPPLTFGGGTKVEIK
B7 gave a Kd [3] of 36.6 nM, a koff [3] of 0.00276 s⁻¹ and a kon [3] of 75400 M⁻¹ s⁻¹.

B8: AB-009346 (antibody, V domains shown)
VH: EVQLVESGGGVVRPGGSLRLSCAASGFTFDDYGMSWVRQAPGKGLEWVSGINWNGGSTGYADSVKGRFTISRDNAKNSLYLQMNSLRAEDTALYYCARWPLLGISGYYHYYMDVWGKGTTVTVSS
VL: QSALTQPRSVSGSPGQSVTISCTGTSSDVGGYNYVSWYQQHPGKAPKLMIYDVSKRPSGVPDRFSGSKSGNTASLTISGLQAEDEADYYCCSYAGSYTLLFGGGTKLIVL
Work on B8 yielded a Kd [3] of 12.5 nM, a koff [3] of 0.000523 s⁻¹ and a kon [3] of 41700 M⁻¹ s⁻¹.

B9: AB-009731 (antibody, V domains shown)
VH: QVQLVQSGAEVKKTGASVKLSCKASGYSLTSYAMHWVRQAPGQRLEWMGWLNGGNGNTKYSQKFQARVTITSDTSARTVYMELSSLTSEDTAVYYCARADHSTYWYGWFDPWGQGTLVTVSS
VL: QSVLTQPPSASGTPGQRVTISCSGSTSNIGSNYVFWYQQFPGTAPKLLIYRNDQRPSGVPDRFSASKAGTSASLAISGLRSEDEADYYCTSWDDSLNGPLFGGGTKLTVL
Work on B9 yielded a Kd [1] of 47.9 nM, a koff [1] of 0.00294 s⁻¹ and a kon [1] of 61400 M⁻¹ s⁻¹.

B10: AB-009108 (antibody, V domains shown)
VH: QVQLQESGPGLVKPSETLALTCTVSGDSIINNNFYWGWLRQPPGQGLEWIGSLFHTGSAYYNSSLKSRVRSSVDTARNQISLRLSSVTAADTAVYYCARVNIVSVPAPPGAIEGWFDPWGQGTRVTVSP
VL: SYELTQPPSVSVSLGQTARISCSGDALPTKYVHWYQQKAGQAPVVVIFRDTERPSEIPERFSGSSSGTTVTLTISGVQAEDEADYYCQSVDGSGFYVFGSGTKVTVL
In the case of B10, the Kd [1] is reported as 94.3 nM, the koff [1] is reported as 0.0126 s⁻¹ and the kon [1] is reported as 134000 M⁻¹ s⁻¹.

B11: AB-009263 (antibody, V domains shown)
VH: EVQLVQSGAEVKKPGESLRISCQSSGYSFSTYWIAWVRQTPEKGLEWMGIIYPGDSDTRYSPTFQGQVTISADTSISTAYLQWSSLKASDTAVYYCARFRFNWLLSYYYYYMDVWGKGTTVSVSS
VL: QSALTQPDSVSGSPGQSIAISCTGTSRDVGGYNYVSWYQQHPGKAPKLMIYEVSNRPSGVSDRFSGSKSDNTASLTISGLQGDDEANYYCSSYTDSGTLVFGGGTKVTVL
Work on B11 yielded a Kd [2] of 0.0383 nM, a koff [2] of 3.82e-07 s⁻¹ and a kon [2] of 9980 M⁻¹ s⁻¹.

B12: AB-009281 (antibody, V domains shown)
VH: EVQLVETGGGLIQPGGSLRLSCAASGFTVSSNYMSWVRQAPGKGLEWVSVIYSGGSTYYADSVKGRFTISRDNSKNTLYLQMNSLRAEDTAVYYCARDLYYYGMDVWGQGTTVTVSS
VL: DIQLTQSPSFLSASVGDRVTITCRASQGISSYLAWYQQKPGKAPKLLIYAASTLQSGVPSRFSGSGSGTEFTLTISSLQPEDFATYYCQQLNSYPTFGQGTKVEIK
With B12 the Kd [3] was 16.7 nM, the koff [3] was 0.00136 s⁻¹ and the kon [3] was 81200 M⁻¹ s⁻¹.

B13: AB-009722 (antibody, V domains shown)
VH: QVQLVQSGAEVRKPGSSVKVSCNVSGGIFNSYKITWVRQAPGQGLEWMGGIIAIFGTADYAQRFQGRLSITADESTSTAYMELSSLRSDDTAVYYCTRERFSNYFDPWGQGTLVTVSS
VL: EVVLTQSPATLSLSPGERATLSCRASQSVSSFLGWYQQKPGQAPRLLIYDASNRASGIPARFSGSGSGTDFTLTISKLEPEDFAVYYCQQRSRGPSGITFGQGTRLEIK
For B13, the Kd [1] was 41.2 nM, the koff [1] was 0.00236 s⁻¹ and the kon [1] was 57300 M⁻¹ s⁻¹.

B14: AB-009117 (antibody, V domains shown)
VH: ELQLVESGGGLVKPGGSLRLSCTASGFTFISYSISWVRQAPGKGLEWVSSISSYSNYIFYGDSVKGRFNISRDNPKNSVYLQLNSLRAEDTAVYYCVRDTSFYEGGGYYNRFEPWGQGTRVTVSS
VL: EIVMTQSPATLSVSPGERATLSCRASQSISINLAWYQQRPGQAPRLLIYGASTRATGIPARFSGSGSGTEFTLTISSLQSEDSAVYYCQQYNNWPPYTFGQGTTLEIK
B14 gave a Kd [2] of 11.5 nM, a koff [2] of 0.000438 s⁻¹ and a kon [2] of 38200 M⁻¹ s⁻¹.

B15: AB-009634 (antibody, V domains shown)
VH: QVTLKESGPALVKPTQTLTLTCTFSGFSLSTSGMRVSWIRQPPGKALEWLARIDWDDDKFYSTSLKTRLTISKDTSKNQVVLTMTNMDPVDTATYYCARYYYYGMDVWGQGTTVTVSS
VL: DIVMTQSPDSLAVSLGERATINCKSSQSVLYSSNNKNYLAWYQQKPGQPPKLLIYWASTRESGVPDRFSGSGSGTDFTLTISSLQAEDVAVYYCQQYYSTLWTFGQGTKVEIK
Binder B15 has a Kd [1] of 24.8 nM, a koff [1] of 0.000496 s⁻¹ and a kon [1] of 20000 M⁻¹ s⁻¹.

B16: AB-009619 (antibody, V domains shown)
VH: QVQLVQSGAEVKKPGASVKVSCKVSGYTLIELSMHWVRQAPGKGLEWMGGFDPEDGETIYAQKFQGRVTMTEDTSTDTAYMELSSLRSEDTAVYYCATGPAAATSGWFDPWGQGTLVTVSS
VL: QSALTQPASVSGSPGQSITISCTGTSSDVGGYNYVSWYQQHPGKAPKLMIYDVSNRPSGVSNRFSGSKSGNTASLTISGLQAEDEADYYCSSYTSSSTRVFGGGTKLTVL
Binder B16 has a Kd [1] of 25.8 nM, a koff [1] of 0.000726 s⁻¹ and a kon [1] of 28100 M⁻¹ s⁻¹.

B17: AB-009635 (antibody, V domains shown)
VH: not shown
VL: SYELTQPPSVSVSPGQTARITCSGDALPKKYAYWYQQKSGQAPVLVIYEDSKRPSGIPERFSGSSSGTMATLTISGAQVEDEADYYCYSTDSSGNHRVFGGGTKLTVL
With B17 the Kd [1] was 10.5 nM, the koff [1] was 0.000749 s⁻¹ and the kon [1] was 71500 M⁻¹ s⁻¹.

B18: AB-009074 (antibody, V domains shown)
VH: QVQLVESGGGVVQPGRSLRLSCAASGFTFSSYGMHWVRQAPGKGLEWVAVIWYDGSNKYYADSVKGRFTISRDNSKNTLYLQMNSLRAEDTAVYYCAREGLVGATTGFDYWGQGTLVTVSS
VL: SYELTQPPSVSVSPGQTARITCSGDALPKKYAYWYQQKSGQAPVLVIYEDSKRPSGIPERFSGSSSGTMATLTISGAQVEDEADYYCYSTDSSGNHGVFGTGTKVTVL
B18 showed a Kd [2] of 91.3 nM, a koff [2] of 0.0011 s⁻¹ and a kon [2] of 12000 M⁻¹ s⁻¹.

B19: AB-009306 (antibody, V domains shown)
VH: QVQLVQSGAEVKKPGASVKVPCKASGYTFTSYQMHWVRRAPGQGLEWMGLIDPDTGGTRYTQNFQGRVTMTRDTSTTTVYMELNSLTSGDTAVYYCARGGRVGATYPYNMDVWGKGTTVTVSS
VL: SYELTQPPSVSVSPGQTARITCSGDALPKKYAYWYQQKSGQAPVLVIYEDSKRPSGIPERFSGSSSGTMATLTISGAQVEDDSDYYCFSTDSSGNHGVFGGGTRLTVL
Work on B19 yielded a Kd [2] of 0.22 nM, a koff [2] of 2.44e-07 s⁻¹ and a kon [2] of 1110 M⁻¹ s⁻¹.

B20: AB-009293 (antibody, V domains shown)
VH: QAQLVESGGGVVQPGRSLRLSCAASGFNFNNYGMHWVRLAAGKGLEWVAFISYEGSITHYADSVKGRFTVSRDFSKNTLYLQMNRLTTGDTAVYYCAKRREVLHLWRDEMDVWGQGTTVTVSS
VL: DIQMTQSPPSLSASVGDRVTFTCRASQDITNSLAWFQQRPGKAPKSLIYAASTLHSGVPSKFSGSGSGTDFTLTITSLQPEDVATYYCQQYKTYPFTFGQGTRLEIK
B20 was tested, and the Kd [2] was 0.0628 nM, the koff [2] was 3.25e-07 s⁻¹ and the kon [2] was 5170 M⁻¹ s⁻¹.

B21: AB-009123 (antibody, V domains shown)
VH: QVQLLQSGAEVRKPGASVKVSCKASGYTFSSYVMHWVRQAPGQGLEWMGWINTGNGNTRYSQKIQGRVTFTIDTAANTVNMEVSSLRSEDTAVYYCAREGLRATHYFDYWGRGTLVTVSS
VL: SYELTQPPSVSVSSGQTASIPCSGDRVGDRYVCWYQQKPGQSPVLVIYQDSKRPSGIPERFSGSNSGSTATLTISGTQAIDEADYYCQAWDSSTGGVFGGGTKLTVL
Work on B21 yielded a Kd [2] of 18.9 nM, a koff [2] of 0.000802 s⁻¹ and a kon [2] of 42500 M⁻¹ s⁻¹.

B22: AB-009275 (antibody, V domains shown)
VH: QVTLRESGPALVKPTQTLTLTCTFSGFSLSTSGMRVSWIRQPPGKALEWLARIDWDDDKFYSTSLKTRLTISKDTSKNQVVLTMTNMDPVDTATYYCARSNYDILTGRLDAFDIWGQGTMVTVSS
VL: not shown
B22 gave a Kd [1] of 127 nM, a koff [1] of 0.00083 s⁻¹ and a kon [1] of 6530 M⁻¹ s⁻¹.
